Data reported in paper PMC9482650, “Quantitative fragmentomics allow affinity mapping of interactomes” (Nature Communications, 2022).

Tests used:
Test in all cases: holdup assay
Set-up in all cases: key: below the threshold = too weak to quantify, mostly under pKd 3.1 to 4
[1] = target: T1, SHANK1, Q9Y566
T1 sequence (Q9Y566 658-767, limits assumed, looked up): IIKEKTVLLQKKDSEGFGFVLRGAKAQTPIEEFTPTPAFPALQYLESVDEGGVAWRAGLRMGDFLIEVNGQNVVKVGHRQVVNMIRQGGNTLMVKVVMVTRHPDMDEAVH

[2] = target: T2, MPP6, Q9NZW5
T2 sequence (Q9NZW5 125-219, limits assumed, looked up): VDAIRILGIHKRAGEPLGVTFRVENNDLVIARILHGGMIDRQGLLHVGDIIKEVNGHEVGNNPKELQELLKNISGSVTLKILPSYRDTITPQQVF

[3] = target: T3, ARHGAP21, Q5T5U3
T3 sequence (Q5T5U3 45-169, limits assumed, looked up): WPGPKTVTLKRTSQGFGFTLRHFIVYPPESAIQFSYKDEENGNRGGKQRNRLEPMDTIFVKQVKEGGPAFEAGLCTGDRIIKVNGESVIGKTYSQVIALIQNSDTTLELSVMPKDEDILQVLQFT

[4] = target: PTPN3, P26045
PTPN3, P26045, sequence (P26045 505-587): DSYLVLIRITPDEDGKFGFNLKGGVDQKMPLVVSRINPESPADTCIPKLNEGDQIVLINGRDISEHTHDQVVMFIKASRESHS

[5] = target: PICK1, Q9NRD5
PICK1, Q9NRD5, sequence (Q9NRD5 17-115): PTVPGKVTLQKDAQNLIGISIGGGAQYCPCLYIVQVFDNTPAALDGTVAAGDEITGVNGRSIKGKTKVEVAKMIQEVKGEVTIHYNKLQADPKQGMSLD

[6] = target: Inadl_2, Q8NI35
Inadl_2, Q8NI35, sequence (Q8NI35 238-335): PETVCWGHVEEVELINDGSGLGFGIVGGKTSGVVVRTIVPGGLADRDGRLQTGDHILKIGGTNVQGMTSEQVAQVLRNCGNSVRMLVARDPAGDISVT

[7] = target: T4, DLG3_2, Q92796
T4 sequence (Q92796 221-321, limits assumed, looked up): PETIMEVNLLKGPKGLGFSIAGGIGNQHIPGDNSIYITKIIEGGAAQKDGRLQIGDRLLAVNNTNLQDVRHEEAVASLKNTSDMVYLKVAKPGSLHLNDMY

[8] = target: MAST1, Q9Y2H9
MAST1, Q9Y2H9, sequence (Q9Y2H9 962-1065): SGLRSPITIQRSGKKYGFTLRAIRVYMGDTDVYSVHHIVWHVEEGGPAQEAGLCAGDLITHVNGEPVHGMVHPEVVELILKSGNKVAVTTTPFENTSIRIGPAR

[9] = target: NHERF4_4, Q86UT5
NHERF4_4, Q86UT5, sequence (Q86UT5 464-550): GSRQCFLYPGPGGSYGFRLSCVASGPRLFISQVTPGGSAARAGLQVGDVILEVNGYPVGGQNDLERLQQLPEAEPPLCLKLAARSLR

[10] = target: SNX27, Q96L92
[11] = target: IL16_1, Q14005
IL16_1, Q14005, sequence (Q14005 210-306): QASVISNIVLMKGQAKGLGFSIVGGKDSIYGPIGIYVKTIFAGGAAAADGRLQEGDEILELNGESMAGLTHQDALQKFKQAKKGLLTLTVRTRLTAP

[12] = target: T5, PCLO, Q9Y6V0
T5 sequence (Q9Y6V0 4491-4600, limits assumed, looked up): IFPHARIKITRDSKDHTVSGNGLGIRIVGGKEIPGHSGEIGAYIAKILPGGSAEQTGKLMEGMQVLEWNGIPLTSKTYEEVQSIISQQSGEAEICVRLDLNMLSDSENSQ

[13] = target: TJP1_2, Q07157
TJP1_2, Q07157, sequence (Q07157 181-274): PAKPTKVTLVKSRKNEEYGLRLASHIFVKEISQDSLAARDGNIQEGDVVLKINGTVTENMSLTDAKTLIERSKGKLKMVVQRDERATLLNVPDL

[14] = target: Inadl_8, Q8NI35
Inadl_8, Q8NI35, sequence (Q8NI35 1425-1530): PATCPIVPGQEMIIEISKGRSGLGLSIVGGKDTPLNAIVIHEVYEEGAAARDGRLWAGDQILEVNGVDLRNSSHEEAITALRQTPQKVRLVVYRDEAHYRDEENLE

[15] = target: MAST2, Q6P0Q8
MAST2, Q6P0Q8, sequence (Q6P0Q8 1099-1202): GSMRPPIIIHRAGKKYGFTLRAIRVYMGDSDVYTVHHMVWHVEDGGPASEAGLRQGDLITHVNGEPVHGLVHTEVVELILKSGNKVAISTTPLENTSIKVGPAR

[16] = target: NHERF2_2, Q15599
NHERF2_2, Q15599, sequence (Q15599 142-238): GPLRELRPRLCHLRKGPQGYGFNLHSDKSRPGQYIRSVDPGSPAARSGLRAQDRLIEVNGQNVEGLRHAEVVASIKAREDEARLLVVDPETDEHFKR

[17] = target: GORASP1, Q9BQQ3
GORASP1, Q9BQQ3, sequence (Q9BQQ3 1-208): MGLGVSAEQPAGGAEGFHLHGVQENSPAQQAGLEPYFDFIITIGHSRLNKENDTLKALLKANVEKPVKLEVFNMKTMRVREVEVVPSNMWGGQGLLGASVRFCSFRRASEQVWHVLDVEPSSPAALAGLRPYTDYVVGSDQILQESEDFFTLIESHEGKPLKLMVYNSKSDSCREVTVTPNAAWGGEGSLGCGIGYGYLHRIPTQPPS

[18] = target: IL16_4, Q14005
IL16_4, Q14005, sequence (Q14005 1229-1329): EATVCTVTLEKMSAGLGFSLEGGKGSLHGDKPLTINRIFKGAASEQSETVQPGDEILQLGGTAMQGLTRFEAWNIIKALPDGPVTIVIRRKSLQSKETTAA

[19] = target: T6, LNX2_2, Q8N448
T6 sequence (Q8N448 334-432, limits assumed, looked up): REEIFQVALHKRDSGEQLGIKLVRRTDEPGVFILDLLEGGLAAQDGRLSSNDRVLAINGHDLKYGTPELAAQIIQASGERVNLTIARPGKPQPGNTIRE

[20] = target: T7, SIPA1L2, Q9P2F8
T7 sequence (Q9P2F8 945-1036, limits assumed, looked up): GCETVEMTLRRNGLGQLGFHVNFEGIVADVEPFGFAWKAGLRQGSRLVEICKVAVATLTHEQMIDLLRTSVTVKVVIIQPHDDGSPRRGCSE

[21] = target: T8, NHERF3_3, Q5T2W1
T8 sequence (Q5T2W1 238-333, limits assumed, looked up): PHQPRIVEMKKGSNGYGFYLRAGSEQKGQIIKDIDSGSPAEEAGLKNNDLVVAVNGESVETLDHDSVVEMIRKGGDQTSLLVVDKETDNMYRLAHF

[22] = target: LDB3, O75112
LDB3, O75112, sequence (O75112 1-94): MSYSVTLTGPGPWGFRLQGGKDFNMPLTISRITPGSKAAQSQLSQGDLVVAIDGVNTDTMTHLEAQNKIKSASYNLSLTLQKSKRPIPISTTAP

[23] = target: T9, PDZRN3_1, Q9UPQ7
T9 sequence (Q9UPQ7 244-349, limits assumed, looked up): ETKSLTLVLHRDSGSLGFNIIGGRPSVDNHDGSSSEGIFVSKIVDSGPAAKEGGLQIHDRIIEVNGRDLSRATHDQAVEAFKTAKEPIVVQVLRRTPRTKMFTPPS

[24] = target: DLG5_1, Q8TDM6
DLG5_1, Q8TDM6, sequence (Q8TDM6 617-713): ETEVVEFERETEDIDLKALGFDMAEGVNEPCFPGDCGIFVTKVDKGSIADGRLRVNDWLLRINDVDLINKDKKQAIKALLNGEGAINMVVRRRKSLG

[25] = target: T10, ARHGEF11, O15085
T10 sequence (O15085 42-136, limits assumed, looked up): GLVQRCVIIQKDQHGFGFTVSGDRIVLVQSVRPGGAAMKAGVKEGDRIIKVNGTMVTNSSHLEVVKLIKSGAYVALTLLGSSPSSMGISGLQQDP

[26] = target: GRIP2_5, Q9C0E4
GRIP2_5, Q9C0E4, sequence (Q9C0E4 544-642): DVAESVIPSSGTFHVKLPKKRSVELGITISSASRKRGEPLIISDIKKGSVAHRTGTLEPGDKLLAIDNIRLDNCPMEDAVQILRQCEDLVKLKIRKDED

[27] = target: T11, RHPN1, Q8TCX5
T11 sequence (Q8TCX5 508-602, limits assumed, looked up): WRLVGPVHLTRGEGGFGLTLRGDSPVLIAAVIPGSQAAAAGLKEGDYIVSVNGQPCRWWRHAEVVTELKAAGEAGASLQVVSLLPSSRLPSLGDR

[28] = plain residues with an end cap or a label only (N-terminal biotin on a linker: ttds)
[29] = plain residues with an end cap or a label only (N-terminal biotin on a linker: none)

B1: OTULIN, Q96BN8 (peptide)
chain: PVRVCEETSL
Q: What does the source list for B1?
A: pKd [1, 28]: 5.14; pKd [2, 28]: below the threshold; pKd [3, 28]: 4.2; pKd [4, 28]: 5.01; pKd [5, 28]: below the threshold; pKd [6, 28]: below the threshold; pKd [7, 28]: 4.35; pKd [8, 28]: 5.3; pKd [9, 28]: below the threshold; pKd [10, 28]: 5.58; pKd [11, 28]: 3.53; pKd [12, 28]: below the threshold; pKd [13, 28]: below the threshold; pKd [14, 28]: 3.61; pKd [15, 28]: 5.28; pKd [16, 28]: 5.21; pKd [17, 28]: 3.64; pKd [18, 28]: 3.66; pKd [19, 28]: below the threshold; pKd [20, 28]: below the threshold; pKd [21, 28]: below the threshold; pKd [22, 28]: below the threshold; pKd [23, 28]: 4.99; pKd [24, 28]: 3.52; pKd [25, 28]: 4.63; pKd [26, 28]: below the threshold; pKd [27, 28]: 4.93

B2: SARS-CoV2-E, P0DTC4 (peptide)
chain: NLNSSRVPDLLV
Q: B2 was tested. Which pKd [1, 29] did it give?
A: Its pKd is “below the threshold”.

Q: And the pKd [2, 29]?
A: The pKd was “below the threshold”.

Q: What about the pKd [3, 29] of the same binder?
A: Its pKd is “below the threshold”.

Q: What about the pKd [4, 29] of the same binder?
A: Its pKd is “below the threshold”.

Q: What about the pKd [5, 29] of the same binder?
A: Its pKd is 3.67.

Q: And the pKd [6, 29]?
A: The pKd was 3.47.

Q: And the pKd [7, 29]?
A: Its pKd is “below the threshold”.

Q: And the pKd [8, 29]?
A: The pKd was “below the threshold”.

Q: What about the pKd [9, 29] of the same binder?
A: Its pKd is “below the threshold”.

Q: What about the pKd [10, 29] of the same binder?
A: The pKd was “below the threshold”.

Q: What about the pKd [11, 29] of the same binder?
A: Its pKd is “below the threshold”.

Q: And the pKd [12, 29]?
A: Its pKd is “below the threshold”.

Q: And the pKd [13, 29]?
A: The pKd was 5.52.

Q: And the pKd [14, 29]?
A: Its pKd is “below the threshold”.

Q: And the pKd [15, 29]?
A: The pKd was “below the threshold”.

Q: What about the pKd [16, 29] of the same binder?
A: Its pKd is “below the threshold”.

Q: What about the pKd [17, 29] of the same binder?
A: Its pKd is 3.6.

Q: And the pKd [18, 29]?
A: The pKd was “below the threshold”.

Q: What about the pKd [19, 29] of the same binder?
A: The pKd was 4.46.

Q: What about the pKd [20, 29] of the same binder?
A: Its pKd is “below the threshold”.

Q: What about the pKd [21, 29] of the same binder?
A: Its pKd is “below the threshold”.

Q: And the pKd [22, 29]?
A: Its pKd is “below the threshold”.

Q: What about the pKd [23, 29] of the same binder?
A: The pKd was “below the threshold”.

Q: And the pKd [24, 29]?
A: The pKd was “below the threshold”.

Q: What about the pKd [25, 29] of the same binder?
A: Its pKd is “below the threshold”.

Q: And the pKd [26, 29]?
A: The pKd was “below the threshold”.

Q: What about the pKd [27, 29] of the same binder?
A: The pKd was “below the threshold”.
